B1: POU domain class 2-associating factor 1 (Homo sapiens), Q16633 (parent)
chain: MLWQKPTAPEQAPAPARPYQGVRVKEPVKELLRRKRGHASSGAAPAPTAVVLPHQPLATYTTVGPSCLDMEGSVSAVTEEAALCAGWLSQPTPATLQPLAPWTPYTEYVPHEAVSCPYSADMYVQPVCPSYTVVGPSSVLTYASPPLITNVTTRSSATPAVGPPLEGPEHQAPLTYFPWPQPLSTLPTSTLQYQPPAPALPGPQFVQLPISIPEPVLQDMEDPRRAASSLTIDKLLLEEEDSDAYALNHTLSVEGF
partner: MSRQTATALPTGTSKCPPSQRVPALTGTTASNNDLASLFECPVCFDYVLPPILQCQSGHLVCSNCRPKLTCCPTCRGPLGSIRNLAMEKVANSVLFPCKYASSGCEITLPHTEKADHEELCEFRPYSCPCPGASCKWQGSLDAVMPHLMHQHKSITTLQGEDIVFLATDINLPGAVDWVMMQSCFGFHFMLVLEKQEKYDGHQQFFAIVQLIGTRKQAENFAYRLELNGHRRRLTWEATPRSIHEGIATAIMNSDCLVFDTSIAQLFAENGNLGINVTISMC

Variants of: B1
Settings: with siah1_human SIAH1, Q8IUQ4

effect of a mutation on the interaction	Variant
disrupting interaction	V51E

— IntAct's records for PubMed 11483518
